Source: paper PMC4980427, “Ctf4 Links DNA Replication with Sister Chromatid Cohesion Establishment by Recruiting the Chl1 Helicase to the Replisome” (Molecular Cell, 2016)

Biological target: the molecule itself
Assay: negative-stain single-particle EM of reconstituted assemblies; purified Ctf4 core, GINS and Chl1 mixed in equimolar amounts; reconstituted assemblies on silver-stained gel and two-dimensional class averages

B1: Ctf4 (residues 471–927) (domain or fragment, S. cerevisiae, UniProt Q01454 471-927, looked up)
chain: TGKFRYMPFSPAGTPFGFTDRRYLTMNEVGYVSTVKNSEQYSITVSFFDVGRFREYHFEDLFGYDLCFLNEKGTLFGQSKTGQIQYRPHDSIHSNWTKIIPLQAGERITSVAATPVRVIVGTSLGYFRSFNQFGVPFAVEKTSPIVALTAQNYRVFSVHYSQFHGLSYSLSELGTSSKRYYKRECPLPMSLPNINSDMKKDANLDYYNFNPMGIKSLFFSSYGDPCIFGSDNTLLLLSKWRSPEESKWLPILDSNMEIWKMSGGKETTDIHVWPLALAYDTLNCILVKGKHIWPEFPLPLPSEMEIRMPVFVKSKLLEENKAILNKKNEIGADTEAEEGEEDKEIQIPVSMAAEEEYLRSKVLSELLTDTLENDGEMYGNENEVLAALNGAYDKALLRLFASACSDQNVEKALSLAHELKQDRALTAAVKISERAELPSLVKKINNIREARYEQQLK
notes: Ctf4 C-terminal trimerization core that contains the CIP box acceptor, residues 471-927; also called Ctf4 C-terminal trimerization core; Ctf4 core; source: E. coli, overexpressed, purified
stoichiometry N: 3
